Data: article PMC3274541, “The Inherited Blindness Protein AIPL1 Regulates the Ubiquitin-Like FAT10 Pathway” (PLoS ONE, 2012)

T1: Myc-AIPL1 (aryl hydrocarbon receptor interacting protein-like 1), wild type (UniProt Q9NZN9 1-384)
T1 construct: also called pCMV-Tag3C-AIPL1; WT AIPL1; source: SK-N-SH, transfected, in lysate
T1 sequence (looked up): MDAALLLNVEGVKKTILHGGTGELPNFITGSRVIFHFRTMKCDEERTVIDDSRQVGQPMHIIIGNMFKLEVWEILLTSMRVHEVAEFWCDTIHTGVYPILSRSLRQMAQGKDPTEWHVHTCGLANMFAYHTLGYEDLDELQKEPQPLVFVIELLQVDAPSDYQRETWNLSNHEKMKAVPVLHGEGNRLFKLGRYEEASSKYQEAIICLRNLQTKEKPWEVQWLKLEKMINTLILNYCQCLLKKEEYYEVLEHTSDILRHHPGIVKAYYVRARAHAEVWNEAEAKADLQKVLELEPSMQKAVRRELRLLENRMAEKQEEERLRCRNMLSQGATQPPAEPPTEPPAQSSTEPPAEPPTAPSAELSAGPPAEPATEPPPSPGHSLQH

B1: NUB1-FLAG (NEDD8 ultimate buster-1) (natural protein)
chain: not shown
notes: NEDD8 ultimate buster-1 (NUB1), the shorter splice variant that lacks 14 amino acids in the second UBA domain of NUB1L; also called NUB1-p3XFLAG-CMV; source: SK-N-SH, transfected, in lysate
B2: HA-FAT10 (natural protein, UniProt O15205 1-165, looked up)
chain: MAPNASCLCVHVRSEEWDLMTFDANPYDSVKKIKEHVRSKTKVPVQDQVLLLGSKILKPRRSLSSYGIDKEKTIHLTLKVVKPSDEELPLFLVESGDEAKRHLLQVRRSSSVAQVKAMIETKTGIIPETQIVTCNGKRLEDGKMMADYGIRKGNLLFLACYCIGG
notes: ubiquitin-like modifier FAT10; also called free FAT10; monomeric FAT10; source: SK-N-SH, transfected, in lysate

Assays:
Experiment in all cases: co-IP; SK-N-SH cells co-transfected; lysed in DM buffer (1% n-dodecyl-β-D-maltoside, 10 mM EDTA, protease inhibitors in PBS); 2 µl antibody 2 h at 4°C, Protein G Sepharose overnight at 4°C, 5 washes; western blot; with or without 50 µM MG132 for 4 h
Conditions in all cases: partners not purified
HA-FAT10 = molecular target: B2
[1] = molecular target: B1
[2] = molecular target: T1, Myc-AIPL1 (aryl hydrocarbon receptor …)

| fold increase of the co-precipitate with MG132 over untreated cells (HA-FAT10) | fold increase of the co-precipitate with proteasome inhibitor over untreated cells [1] | fold increase of the co-precipitate with proteasome inhibitor over untreated cells [2] | Binder |
| --- | --- | --- | --- |
| ~5 fold | – | – | B1 |
| – | ~2 fold | ~5 fold | B2 |
